# Assay results reported in patent US20240199761A1 (AstraZeneca / MedImmune, published 2024).
# Like-named read-outs stand apart in the source and are kept apart here.
# T1: Human PAD1 (Homo sapiens, UniProt Q9ULC6)
# T1 construct: biotinylated, captured on a streptavidin plate; also called biotinylated PAD1
# T1 sequence (single chain, looked up): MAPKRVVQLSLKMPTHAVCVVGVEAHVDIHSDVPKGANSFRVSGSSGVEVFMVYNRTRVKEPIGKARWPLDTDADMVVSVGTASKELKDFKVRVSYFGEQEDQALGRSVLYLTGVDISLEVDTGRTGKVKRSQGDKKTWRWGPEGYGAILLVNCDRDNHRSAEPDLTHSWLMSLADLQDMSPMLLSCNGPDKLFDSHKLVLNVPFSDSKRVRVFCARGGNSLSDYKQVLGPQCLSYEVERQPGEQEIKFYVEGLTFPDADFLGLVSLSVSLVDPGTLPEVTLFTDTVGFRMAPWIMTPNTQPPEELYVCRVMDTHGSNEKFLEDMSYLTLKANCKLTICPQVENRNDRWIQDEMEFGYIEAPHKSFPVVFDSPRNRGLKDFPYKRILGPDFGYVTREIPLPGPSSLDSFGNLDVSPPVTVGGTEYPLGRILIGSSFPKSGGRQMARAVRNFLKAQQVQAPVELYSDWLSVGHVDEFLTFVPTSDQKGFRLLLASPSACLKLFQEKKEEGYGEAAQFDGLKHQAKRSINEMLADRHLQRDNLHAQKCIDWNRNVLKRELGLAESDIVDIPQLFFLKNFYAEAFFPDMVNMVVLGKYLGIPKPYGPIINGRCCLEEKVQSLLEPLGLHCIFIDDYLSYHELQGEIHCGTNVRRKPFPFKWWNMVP
# T2: Human PAD3 (Homo sapiens, UniProt Q9ULW8)
# T2 construct: biotinylated, captured on a streptavidin plate; also called biotinylated PAD3
# T2 sequence (single chain, looked up): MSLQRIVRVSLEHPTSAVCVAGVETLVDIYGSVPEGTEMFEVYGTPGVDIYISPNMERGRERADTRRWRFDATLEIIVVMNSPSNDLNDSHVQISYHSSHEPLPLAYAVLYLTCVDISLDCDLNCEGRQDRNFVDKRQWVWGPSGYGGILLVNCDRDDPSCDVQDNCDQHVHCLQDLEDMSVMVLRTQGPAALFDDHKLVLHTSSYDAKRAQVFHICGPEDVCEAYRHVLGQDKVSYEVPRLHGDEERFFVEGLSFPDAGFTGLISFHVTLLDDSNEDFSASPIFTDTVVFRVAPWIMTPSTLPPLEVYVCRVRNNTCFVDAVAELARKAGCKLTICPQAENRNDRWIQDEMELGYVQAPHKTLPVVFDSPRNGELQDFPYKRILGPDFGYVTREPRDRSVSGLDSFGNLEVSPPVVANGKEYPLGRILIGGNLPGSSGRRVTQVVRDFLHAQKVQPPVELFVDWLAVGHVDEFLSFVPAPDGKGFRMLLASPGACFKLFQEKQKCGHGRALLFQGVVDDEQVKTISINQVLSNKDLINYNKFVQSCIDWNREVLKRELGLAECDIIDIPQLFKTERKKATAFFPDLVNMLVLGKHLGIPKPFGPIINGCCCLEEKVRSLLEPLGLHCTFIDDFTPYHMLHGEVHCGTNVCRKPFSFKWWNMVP
# B1: Clone 12 (Bis3, FQQ-YTE; PAD2 Fab, PAD4 scFv) (bispecific antibody, human IgG1, lambda)
# heavy: not shown
# light: SYVLTQPPSVSVSPGQTASITCSGDKVGDKYVSWYQQKPGQSPVLVIYQDSQRPSGIPERFSGSNSGNTATLTISGTQAMDEADYYCQTWAPDVLLFGSGTKVTVLGQPKAAPSVTLFPPSSEELQANKATLVCLISDFYPGAVTVAWKADSSPVKAGVETTTPSKQSNNKYAASSYLSLTPEQWKSHRSYSCQVTHEGSTVEKTVAPTECS
# notes: also called PAD240012
# B2: Clone 22 (141LO0035 hIgG1 pgl-4), anti-PAD2, as Fab (Fab, V domains shown)
# VH: not shown
# VL: SYVLTQPPSVSVSPGQTASITCSGDKVGDKYVSWYQQKPGQSPVLVIYQDSQRPSGIPERFSGSNSGNTATLTISGTQAMDEADYYCQTWAPDVLLFGSGTKVTVL
# notes: also called Clone 22 (Fab); anti-PAD2 Fab
# B3: anti-PAD2 Clone 22 (141LO0035 hIgG1 pgl-4), Fab (Fab, V domains shown)
# VH: not shown
# VL: B2 VL
# notes: Tested as Fab; also called Clone 22 (Fab)
# B4: R347 Bis3 FQQYTE (antibody, human IgG1, lambda)
# light chain: ELVLTQPASVSGSPGQSITISCTGTSSDVGGYNYVSWYQQHPGKAPKLMIYDVSKRPSGVSNRFSGSKSGNTASLTISGLQAEDEADYYCSSYTSSSTLVFGGGTKLTVLGQPKAAPSVTLFPPSSEELQANKATLVCLISDFYPGAVTVAWKADSSPVKAGVETTTPSKQSNNKYAASSYLSLTPEQWKSHRSYSCQVTHEGSTVEKTVAPTECS
# heavy chain with C-terminal scFv: EVQLLESGGGLVQPGGSLRLSCTTSGFTFNTYAMSWVRQAPGKGLEWLSGINNNGRTAFYADSVKGRFTISRDNSKNTLYLQINSLRADDTAVYFCAKDVRFIAVPGDSWGQGTLVTVSSASTKGPSVFPLAPSSKSTSGGTAALGCLVKDYFPEPVTVSWNSGALTSGVHTFPAVLQSSGLYSLSSVVTVPSSSLGTQTYICNVNHKPSNTKVDKRVEPKSCDKTHTCPPCPAPEFQGGPSVFLFPPKPKDTLYITREPEVTCVVVDVSHEDPEVKFNWYVDGVEVHNAKTKPREEQYNSTYRVVSVLTVLHQDWLNGKEYKCQVSNKALPAPIEKTISKAKGQPREPQVYTLPPSREEMTKNQVSLTCLVKGFYPSDIAVEWESNGQPENNYKTTPPVLDSDGSFFLYSKLTVDKSRWQQGNVFSCSVMHEALHNHYTQKSLSLSPGKGGGGSGGGGSEVQLLESGGGLVQPGGSLRLSCTTSGFTFNTYAMSWVRQAPGKGLEWLSGINNNGRTAFYADSVKGRFTISRDNSKNTLYLQINSLRADDTAVYFCAKDVRFIAVPGDSWGQGTLVTVSSGGGGSGGGGSGGGGSGGGGSELVLTQPASVSGSPGQSITISCTGTSSDVGGYNYVSWYQQHPGKAPKLMIYDVSKRPSGVSNRFSGSKSGNTASLTISGLQAEDEADYYCSSYTSSSTLVFGGGTKLTVL
# notes: also called Bis3 control (R347)
# Legend:
# [1] = target: T1, Human PAD1; test: specificity ELISA: biotinylated PAD on a streptavidin plate, detection with anti-human IgG Fc HRP, Binding (RFU); antibody concentration not given
# [2] = target: T2, Human PAD3; test: as above
# [3] = target: T3, recombinant human PAD2 (human, UniProt Q9Y2J8 1-665, enzymatically biotinylated on an Avi-tag (when captured on the SPR chip)); test: SPR (Biacore 8K), N-terminally tagged against C-terminally tagged recombinant PAD2
# T3 construct: also called hPAD2; Human PAD2 (RD220)
# [4] = target: T4, human PAD2, recombinant, tags at the N-terminus (human, UniProt Q9Y2J8 1-665, enzymatically biotinylated on an Avi-tag where captured on streptavidin); test: SPR; biotinylated PAD2 on C1-streptavidin, antibody flowed over
# T4 construct: not shown: N-terminal tags incl; Avi-tag
# [5] = target: T5, cynomolgus PAD2, recombinant, tags at the N-terminus (cynomolgus, UniProt G7NUR0 1-665, enzymatically biotinylated on an Avi-tag where captured on streptavidin); test: as above
# T5 construct: also called Cyno PAD2; not shown: N-terminal tags incl; Avi-tag
# [6] = target: T6, mouse PAD2, recombinant, tags at the N-terminus (mouse, UniProt Q08642 1-673, enzymatically biotinylated on an Avi-tag where captured on streptavidin); test: as above
# T6 construct: not shown: N-terminal tags incl; Avi-tag
# [7] = target: T4, human PAD2, recombinant, tags at the …; test: as above; remark: listed apart in the source
# [8] = target: T5, cynomolgus PAD2, recombinant, tags at …; test: as above; remark: listed apart in the source
# [9] = target: T6, mouse PAD2, recombinant, tags at the …; test: as above; remark: listed apart in the source
# [10] = target: T3, recombinant human PAD2; test: specificity ELISA: biotinylated PAD on a streptavidin plate, detection with anti-human IgG Fc HRP, Binding (RFU); antibody concentration not given
# [11] = target: T7, recombinant human PAD4 (human, UniProt Q9UM07 1-663, enzymatically biotinylated on an Avi-tag (when captured on the SPR chip)); test: as above
# T7 construct: also called hPAD4; Human PAD4 (RD223)
# [12] = target: T8, PAD2 (species not stated) (Homo sapiens (Human), UniProt Q9Y2J8 1-665, Biotinylated in the specificity ELISA. The SPR material was enzymatically biotinylated on an Avi-tag.); test: specificity ELISA: biotinylated PAD on a streptavidin plate, detection with anti-human IgG Fc HRP, fluorescence (RFU); antibody concentration not given
# T8 construct: Biotinylated in the specificity ELISA; also called biotinylated PAD2; not shown: Avi-tag and any purification tag on the recombinant PAD2
# [13] = target: T9, PAD4 (species not stated) (Homo sapiens (Human), UniProt Q9UM07 1-663, Biotinylated in the specificity ELISA. The SPR material was enzymatically biotinylated on an Avi-tag.); test: as above
# T9 construct: Biotinylated in the specificity ELISA; monomer and dimer forms seen in iSCAT; also called biotinylated PAD4; not shown: Avi-tag and any purification tag on the recombinant PAD4
binder,measurement,setting,value
B1,binding result,[1],no binding
same,binding result,[2],no binding
B2,fold higher affinity than in the previous assay (Table 69),[3],10 fold
B3,Kd,[4],0.0131 nM
same,koff,[4],4.77e-05 s⁻¹
same,kon,[4],3.67e+06 M⁻¹ s⁻¹
same,Kd,[5],0.0292 nM
same,koff,[5],7.03e-05 s⁻¹
same,kon,[5],2.39e+06 M⁻¹ s⁻¹
same,Kd,[6],0.131 nM
same,koff,[6],0.000462 s⁻¹
same,kon,[6],3.59e+06 M⁻¹ s⁻¹
same,Kd,[7],0.0131 nM
same,Kd,[8],0.0292 nM
same,Kd,[9],0.131 nM
B4,binding result,[10],no binding
same,binding result,[11],no binding
same,binding result,[12],no binding
same,binding result,[13],no binding
